Experimental data: PMC7671685
Several values for one entry are separate records, joined by “and”; a condition that tells them apart may be missing. Equal entries are not always repeated.

Biological target: proinsulin 2 (mouse (endogenous in MIN6))
Experiment: non-reducing SDS-PAGE of immunoprecipitates (disulfide-linked forms) + mass spectrometry of the excised band; MIN6 cells treated with 50 µM olanzapine; pulse-chase, immunoprecipitation with anti-insulin #8138, non-reducing SDS-PAGE and autoradiography; for mass spectrometry cells were lysed in 1% NP40 with 10 mM NEM and the HMP-1 band was excised

## proinsulin 2 (natural protein)
  stoichiometry N: 2 and 3
